Here are results for two molecules from PMC6309870.

The data set deals with T1, HA-CEBPD (C/EBP delta, NF-IL6beta) (UniProt P49716 1-269).
T1 sequence: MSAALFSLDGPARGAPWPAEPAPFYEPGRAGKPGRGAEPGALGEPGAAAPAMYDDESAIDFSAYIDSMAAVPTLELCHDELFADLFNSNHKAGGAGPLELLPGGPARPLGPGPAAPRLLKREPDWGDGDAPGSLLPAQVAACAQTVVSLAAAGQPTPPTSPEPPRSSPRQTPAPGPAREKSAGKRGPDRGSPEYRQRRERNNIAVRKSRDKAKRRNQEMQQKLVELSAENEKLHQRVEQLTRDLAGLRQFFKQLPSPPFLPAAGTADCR
Briefly: EMSA, supershift. For orientation: In EMSA bound probe runs differently from free probe, usually more slowly.

B1: PTX3 promoter site 1 (dsDNA)
DNA 1: TTTAATATTGTGCAACTTCCAC
DNA 2: GTGGAAGTTGCACAATATTAAA
B1: the binding result is recorded as “binds”.

B2: PTX3 promoter site 5 (dsDNA)
DNA 1: TAAAGGGTTGTGAAATAATAAC
DNA 2: GTTATTATTTCACAACCCTTTA
Regarding B2, the binding result is “binds”.
